Assay results reported in patent US20160264649A1.

Assays:
Assay in all cases: cell-based or functional assay
[1] = biological target: HIV-1 MGRM-F1-022 Env (HIV-1)
[2] = biological target: HIV-1 MGRM-AG-001 Env (HIV-1)
[3] = biological target: HIV-1 MGRM-D-026 Env (HIV-1)
[4] = biological target: HIV-1 TRJ0.58 (Acute) Env on pseudovirus (HIV-1)
[5] = biological target: HIV-1 92UG024 Env (HIV-1)
[6] = biological target: HIV-1 MGRM-G-006 Env (HIV-1)
[7] = biological target: HIV-1 APV-17 Env (HIV-1)
[8] = biological target: HIV-1 MGRM-F1-006 Env (HIV-1)
[9] = biological target: HIV-1 93TH305 Env on pseudovirus (HIV-1)
[10] = biological target: HIV-1 MGRM-G-024 Env (HIV-1)
[11] = biological target: HIV-1 MGRM-G-017 Env (HIV-1)
[12] = biological target: HIV-1 MGRM-D-019 Env (HIV-1)
[13] = biological target: HIV-1 THR0.18 (Acute) Env on pseudovirus (HIV-1)
[14] = biological target: HIV-1 MGRM-C-006 Env on pseudovirus (HIV-1)
[15] = biological target: HIV-1 MGRM-Chronic-B-012 Env on pseudovirus (HIV-1)
[16] = biological target: HIV-1 MGRM-G-011 Env (HIV-1)
[17] = biological target: HIV-1 MGRM-C-015 Env on pseudovirus (HIV-1)
[18] = biological target: HIV-1 MGRM-F1-020 Env (HIV-1)
[19] = biological target: HIV-1 MGRM-G-009 Env (HIV-1)
[20] = biological target: HIV-1 MGRM-Chronic-B-024 Env on pseudovirus (HIV-1)
[21] = biological target: HIV-1 MGRM-F1-018 Env (HIV-1)
[22] = biological target: HIV-1 MGRM-AE-004 Env (HIV-1)
[23] = biological target: HIV-1 MGRM-G-016 Env (HIV-1)
[24] = biological target: HIV-1 MGRM-AE-006 Env (HIV-1)
[25] = biological target: HIV-1 MGRM-F1-012 Env (HIV-1)
[26] = biological target: HIV-1 6535.3 (Acute) Env on pseudovirus (HIV-1)
[27] = biological target: HIV-1 MGRM-D-004 Env (HIV-1)
[28] = biological target: HIV-1 MGRM-D-020 Env (HIV-1)
[29] = biological target: HIV-1 MGRM-G-001 Env (HIV-1)
[30] = biological target: HIV-1 MGRM-AE-005 Env (HIV-1)
[31] = biological target: HIV-1 MGRM-Chronic-B-023 Env on pseudovirus (HIV-1)
[32] = biological target: HIV-1 IAVI-C22 Env (HIV-1)
[33] = biological target: HIV-1 LAVI_C3 Env on pseudovirus (HIV-1)
[34] = biological target: HIV-1 MGRM-Chronic-B-008 Env on pseudovirus (HIV-1)
[35] = biological target: HIV-1 92TH021 Env (HIV-1)

Q: For 1496_C09 (PG9) (TCN-109) (antibody), which IC50 (pseudovirus neutralization) [1] is on record?
A: The IC50 (pseudovirus neutralization) was 0.06 µg/mL.

Q: What about the IC50 (µg/ml), pseudovirus neutralization [2] of the same substance?
A: The IC50 (µg/ml), pseudovirus neutralization was 8.83 µg/mL.

Q: What about the IC50 (µg/ml), pseudovirus neutralization [3] of the same substance?
A: Its IC50 (µg/ml), pseudovirus neutralization is 17.5 µg/mL.

Q: What about the IC50 [4] of the same substance?
A: Its IC50 is 0.43 µg/mL.

Q: And the IC50 (µg/ml), pseudovirus neutralization [5]?
A: The IC50 (µg/ml), pseudovirus neutralization was 1.91 µg/mL.

Q: What about the IC50 (µg/ml), pseudovirus neutralization [6] of the same substance?
A: The IC50 (µg/ml), pseudovirus neutralization was 0.51 µg/mL.

Q: And the neutralization IC50 [7]?
A: The neutralization IC50 was 26.4 µg/mL.

Q: What about the IC50 (pseudovirus neutralization) [8] of the same substance?
A: The IC50 (pseudovirus neutralization) was 1.45 µg/mL.

Q: What about the IC50 [9] of the same substance?
A: The IC50 was 2.08 µg/mL.

Q: What about the IC50 (µg/ml), pseudovirus neutralization [10] of the same substance?
A: Its IC50 (µg/ml), pseudovirus neutralization is 0.07 µg/mL.

Q: And the IC50 (µg/ml), pseudovirus neutralization [11]?
A: The IC50 (µg/ml), pseudovirus neutralization was 0.03 µg/mL.

Q: And the IC50 (µg/ml), pseudovirus neutralization [12]?
A: Its IC50 (µg/ml), pseudovirus neutralization is 0.03 µg/mL.

Q: What about the IC50 [13] of the same substance?
A: The IC50 was 12.4 µg/mL.

Q: What about the IC50 [14] of the same substance?
A: The IC50 was 0.23 µg/mL.

Q: And the IC50 [15]?
A: The IC50 was 0.91 µg/mL.

Q: And the IC50 (µg/ml), pseudovirus neutralization [16]?
A: Its IC50 (µg/ml), pseudovirus neutralization is 0.19 µg/mL.

Q: And the IC50 [17]?
A: Its IC50 is 0.5 µg/mL.

Q: What about the IC50 (pseudovirus neutralization) [18] of the same substance?
A: The IC50 (pseudovirus neutralization) was 4.55 µg/mL.

Q: And the IC50 (µg/ml), pseudovirus neutralization [19]?
A: The IC50 (µg/ml), pseudovirus neutralization was 4.9 µg/mL.

Q: And the IC50 [20]?
A: Its IC50 is 0.18 µg/mL.

Q: And the IC50 (pseudovirus neutralization) [21]?
A: The IC50 (pseudovirus neutralization) was 0.03 µg/mL.

Q: And the IC50 (µg/ml), pseudovirus neutralization [22]?
A: The IC50 (µg/ml), pseudovirus neutralization was 0.01 µg/mL.

Q: What about the IC50 (µg/ml), pseudovirus neutralization [23] of the same substance?
A: Its IC50 (µg/ml), pseudovirus neutralization is 0.4 µg/mL.

Q: And the IC50 (µg/ml), pseudovirus neutralization [24]?
A: Its IC50 (µg/ml), pseudovirus neutralization is 0.05 µg/mL.

Q: And the IC50 (pseudovirus neutralization) [25]?
A: Its IC50 (pseudovirus neutralization) is 0.01 µg/mL.

Q: And the IC50 [26]?
A: The IC50 was 0.22 µg/mL.

Q: What about the IC50 (µg/ml), pseudovirus neutralization [27] of the same substance?
A: Its IC50 (µg/ml), pseudovirus neutralization is 0.03 µg/mL.

Q: What about the IC50 (µg/ml), pseudovirus neutralization [28] of the same substance?
A: Its IC50 (µg/ml), pseudovirus neutralization is 2.03 µg/mL.

Q: What about the IC50 (µg/ml), pseudovirus neutralization [29] of the same substance?
A: The IC50 (µg/ml), pseudovirus neutralization was 0.16 µg/mL.

Q: And the IC50 (µg/ml), pseudovirus neutralization [30]?
A: The IC50 (µg/ml), pseudovirus neutralization was 0.16 µg/mL.

Q: What about the IC50 [31] of the same substance?
A: The IC50 was 0.04 µg/mL.

Q: What about the neutralization IC50 [32] of the same substance?
A: Its neutralization IC50 is 24.9 µg/mL.

Q: And the IC50 [33]?
A: Its IC50 is 1.45 µg/mL.

Q: What about the IC50 [34] of the same substance?
A: The IC50 was 6.66 µg/mL.

Q: What about the IC50 (µg/ml), pseudovirus neutralization [35] of the same substance?
A: Its IC50 (µg/ml), pseudovirus neutralization is 0.09 µg/mL.

Q: And the neutralization IC50 [35]?
A: The neutralization IC50 was 0.111 µg/mL.

Q: And the neutralization IC90 [35]?
A: Its neutralization IC90 is 1.99 µg/mL.
